Substrate in this data set: CNCC(=O)O
Briefly: purified protein, by the assay type. Particulars: other: 37° C., pH 8.0.

B1: sarcosine oxidase (E.C.1.5.3.1) from Streptomyces sp. KB210-8SY (Streptomyces sp. KB210-8SY) (protein)
chain: SPTYDVIVIGLGGMGSAAAHHLSARGARVLGLEKFGPVHNRGSSHGGSRITRQSYFEDPAYVPLLLRAYELYEELERATGRNVATLCGGVMAGPPDSRTVSGSLRSATEWDLAHEMLDAKEIRRRFPTLAPDDDEVALFEAKAGLLRPENMVAAHLQLATRQGAELRFEEPVLRWEPYRDGVRVHTGENTYTAGQLVICPGAWAPQLLADIGVPITVERQIMYWFQPKGGTGPFVPERHPVYIWEDADGVQVYGFPAIDGPEKGAKVAFFRKGQHTTPETIDRTVHAHEVRAMADHMSALIPDLPGTFLKAATCMYSNTPDEHFVIARHPAHPESVTVACGFSGHGFKFVPVVGEILADLALTGATAHPIGLFDPARLTAPAARGVQP
One may read the Km as the substrate concentration at which the rate is half of its maximum. Take B1: the Km is 910 µM.

These data come from patent US5091312A.
